Test results reported in publication PMC2789664.

Legend:
GAPDH C149A = GAPDH C149A (Homo sapiens, UniProt P04406 1-335, C152A); test: EMSA
GAPDH D32A = GAPDH D32A (Homo sapiens, UniProt P04406 1-335, D35A); test: EMSA
GAPDH D32A, sequence (P04406 whole entry D35A): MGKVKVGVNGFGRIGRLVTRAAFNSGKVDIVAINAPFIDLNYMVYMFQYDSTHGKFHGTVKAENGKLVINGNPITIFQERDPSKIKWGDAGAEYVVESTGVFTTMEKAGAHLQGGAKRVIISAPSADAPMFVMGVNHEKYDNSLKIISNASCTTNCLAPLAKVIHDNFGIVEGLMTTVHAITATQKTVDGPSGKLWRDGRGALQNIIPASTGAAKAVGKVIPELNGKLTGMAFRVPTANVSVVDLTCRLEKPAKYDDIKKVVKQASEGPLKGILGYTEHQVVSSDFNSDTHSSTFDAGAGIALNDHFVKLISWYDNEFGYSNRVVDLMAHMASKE

GAPDH C149A, sequence (P04406 whole entry C152A): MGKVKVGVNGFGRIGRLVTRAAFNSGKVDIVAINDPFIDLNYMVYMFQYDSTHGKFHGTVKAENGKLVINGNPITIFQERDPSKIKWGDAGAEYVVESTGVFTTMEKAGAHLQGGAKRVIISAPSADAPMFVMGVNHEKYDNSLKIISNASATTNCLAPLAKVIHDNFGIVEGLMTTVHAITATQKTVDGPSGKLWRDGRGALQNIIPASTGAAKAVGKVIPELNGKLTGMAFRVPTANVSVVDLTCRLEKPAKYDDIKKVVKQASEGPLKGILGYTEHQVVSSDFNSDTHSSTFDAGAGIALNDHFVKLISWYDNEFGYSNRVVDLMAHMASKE

## AGGGTTAGGGTTAGGGTT (ssDNA) [ss-(AGGGTT)3]
GAPDH C149A
  binding result: no binding
GAPDH D32A
  binding result: no binding
